The conditions of data set [1]: cited from earlier work.
For data set [2] the following is noted: cited from earlier work. The source holds these as a separate data set.
For data set [3] the following is noted: cited from earlier work. This is another data set of the same source.
Data set [4] in a line: Oxygen dissociation rates of DevS proteins, stopped flow. The data set is classed as binding, Mycobacterium tuberculosis. The settings on record: read-out: O2 Kd; from koff and kon.
Data set [5] can be described thus: Oxygen association rates of DevS proteins, laser flash photolysis. Format: binding, Mycobacterium tuberculosis. The settings on record: pH 7.5 phosphate buffer (20 mM), 200 mM NaCl, 1 mM EDTA.
The nature of data set [6]: Autooxidation of oxy-ferrous DevS proteins to the ferric. Format: physicochemical, Mycobacterium tuberculosis. To be noted: for autooxidation rate k / autooxidation t1/2: 25 °C.
The subject of a further data set is DevS kinase. The settings on record: cited from earlier work.
Data set [7] is described as follows: CO association and dissociation kinetics of DevS proteins, stopped flow. Format: binding, Mycobacterium tuberculosis. The settings on record: 4 °C; for Kd: read-out: CO Kd, from koff and kon; for CO koff / CO kon: stopped flow; for CO koff: displacement with air saturated buffer or NO solutions; for CO kon: phosphate buffer (50 mM) pH 7.5, 200 mM NaCl, 1 mM EDTA.

The mark [8] stands for this setting: phosphate buffer (50 mM), pH 7.5, 1 mM EDTA and 200 mM NaCl.
The mark [9] stands for this setting: ferrous unligated form (5c complex).
Setting [10] is: ligand binding: O2 (oxy ferrous 6c species).
Setting [11] is: CaCl2 0.1 mM, hepes buffer (20 mM), pH 7.5, Chelex 100.
The mark [12] stands for this setting: CuCl2 10 µM, hepes buffer (20 mM), pH 7.5, Chelex 100.
Where [13] appears, read: FeCl3 0.1 mM (nominal), hepes buffer (20 mM), pH 7.5, Chelex 100.
Setting [14] is: KCl 200 mM, hepes buffer (20 mM), pH 7.5, pretreated with Chelex 100.
[15] abbreviates: MgCl2 1 mM, hepes buffer (20 mM), pH 7.5, Chelex 100.
The mark [16] stands for this setting: NaCl 200 mM, hepes buffer (20 mM), pH 7.5, Chelex 100.

Changes are numbered by the printed parent chain. Names and notes keep the numbering of the source. Where two headings read alike, the source gives them in different places.

The Kd is the free concentration of one partner at which half of the binding sites on the other are occupied at equilibrium, for simple one-to-one binding.

B1: Bovine Mb: bovine myoglobin (protein, UniProt P02192 2-154, looked up)
Myoglobin: GLSDGEWQLVLNAWGKVEADVAGHGQEVLIRLFTGHPETLEKFDKFKHLKTEAEMKASEDLKKHGNTVLTALGGILKKKGHHEAEVKHLAESHANKHKIPVKYLEFISDAIIHVLHAKHPSDFGADAQAAMSKALELFRNDMAAQYKVLGFHG
For the molecule B1, the “autooxidation t1/2” value in data set [1] (pH 9, 25 °C) is recorded as 63 h.

B2: BjFixL: FixL gas sensor kinase (literature comparator) (protein, UniProt P23222 1-505, looked up)
Sensor protein FixL: MAPTRVTHPPDDGRGEHFRVRIEGFGVGTWDLDLKTWALDWSDTARTLLGIGQDQPASYDLFLSRLEPDDRERVESAIKRVSERGGGFDVSFRVAGTSNAGQWIRARAGLIRDEAGTARHLSGIFLDIDEEKQVEGALRTRETHLRSILHTIPDAMIVIDGHGIIQLFSTAAERLFGWSELEAIGQNVNILMPEPDRSRHDSYISRYRTTSDPHIIGIGRIVTGKRRDGTTFPMHLSIGEMQSGGEPYFTGFVRDLTEHQQTQARLQELQSELVHVSRLSAMGEMASALAHELNQPLAAISNYMKGSRRLLAGSSDPNTPKVESALDRAAEQALRAGQIIRRLRDFVARGESEKRVESLSKLIEEAGALGLAGAREQNVQLRFSLDPGADLVLADRVQIQQVLVNLFRNALEAMAQSQRRELVVTNTPAADDMIEVEVSDTGSGFQDDVIPNLFQTFFTTKDTGMGVGLSISRSIIEAHGGRMWAESNASGGATFRFTLPAADEN
As for B2, in data set [2], the CO koff was 0.045 s⁻¹ and the CO kon is 5000 M⁻¹ s⁻¹. Besides, in data set [2] (read-out: CO Kd), the Kd was 9 µM. In addition, in data set [1] (pH7, 37 °C), the autooxidation rate k is 2.8 h⁻¹ and the “autooxidation t1/2” value is given as 0.25 h. In addition, in data set [3], the O2 koff is 20 s⁻¹ and the O2 kon was 145000 M⁻¹ s⁻¹. Also, the Kd in data set [3] (read-out: O2 Kd) is 138 µM.

B3: EcDos: Escherichia coli Dos, heme-regulated phosphodiesterase (protein, UniProt P76129 1-799, looked up)
Oxygen sensor protein DosP: MKLTDADNAADGIFFPALEQNMMGAVLINENDEVMFFNPAAEKLWGYKREEVIGNNIDMLIPRDLRPAHPEYIRHNREGGKARVEGMSRELQLEKKDGSKIWTRFALSKVSAEGKVYYLALVRDASVEMAQKEQTRQLIIAVDHLDRPVIVLDPERHIVQCNRAFTEMFGYCISEASGMQPDTLLNIPEFPADNRIRLQQLLWKTARDQDEFLLLTRTGEKIWIKASISPVYDVLAHLQNLVMTFSDITEERQIRQLEGNILAAMCSSPPFHEMGEIICRNIESVLNESHVSLFALRNGMPIHWASSSHGAEIQNAQSWSATIRQRDGAPAGILQIKTSSGAETSAFIERVADISQHMAALALEQEKSRQHIEQLIQFDPMTGLPNRNNLHNYLDDLVDKAVSPVVYLIGVDHIQDVIDSLGYAWADQALLEVVNRFREKLKPDQYLCRIEGTQFVLVSLENDVSNITQIADELRNVVSKPIMIDDKPFPLTLSIGISYDLGKNRDYLLSTAHNAMDYIRKNGGNGWQFFSPAMNEMVKERLVLGAALKEAISNNQLKLVYQPQIFAETGELYGIEALARWHDPLHGHVPPSRFIPLAEEIGEIENIGRWVIAEACRQLAEWRSQNIHIPALSVNLSALHFRSNQLPNQVSDAMHAWGIDGHQLTVEITESMMMEHDTEIFKRIQILRDMGVGLSVDDFGTGFSGLSRLVSLPVTEIKIDKSFVDRCLTEKRILALLEAITSIGQSLNLTVVAEGVETKEQFEMLRKIHCRVIQGYFFSRPLPAEEIPGWMSSVLPLKI
As to B3, in data set [1], the autooxidation rate k was 0.7 h⁻¹ and the “autooxidation t1/2” value was 1 h.

B4: full-length Y171F DevS (protein, UniProt P9WGK3 1-578, looked up, variant Y171F)
chain: MTTGGLVDENDGAAMRPLRHTLSQLRLHELLVEVQDRVEQIVEGRDRLDGLVEAMLVVTAGLDLEATLRAIVHSATSLVDARYGAMEVHDRQHRVLHFVYEGIDEETVRRIGHLPKGLGVIGLLIEDPKPLRLDDVSAHPASIGFPPYHPPMRTFLGVPVRVRDESFGTLFLTDKTNGQPFSDDDEVLVQALAAAAGIAVANARLYQQAKARQSWIEATRDIATELLSGTEPATVFRLVAAEALKLTAADAALVAVPVDEDMPAADVGELLVIETVGSAVASIVGRTIPVAGAVLREVFVNGIPRRVDRVDLEGLDELADAGPALLLPLRARGTVAGVVVVLSQGGPGAFTDEQLEMMAAFADQAALAWQLATSQRRMRELDVLTDRDRIARDLHDHVIQRLFAIGLALQGAVPHERNPEVQQRLSDVVDDLQDVIQEIRTTIYDLHGASQGITRLRQRIDAAVAQFADSGLRTSVQFVGPLSVVDSALADQAEAVVREAVSNAVRHAKASTLTVRVKVDDDLCIEVTDNGRGLPDEFTGSGLTNLRQRAEQAGGEFTLASVPGASGTVLRWSAPLSQ
modifications: full-length
In the case of B4, the Kd in data set [4] worked out at 0.12 µM. Moreover, the O2 kon in data set [5] is listed as 32.4 ^a µM^−1s^−1. Also, the autooxidation rate k in data set [6] (setting [8]) amounted to 0.012 h⁻¹. Moreover, the kinase activity entry with DevS kinase (setting [9]) is “active”. Also, the kinase activity entry with DevS kinase (setting [10]) is “inactive”. Moreover, in data set [7], the Kd amounted to 3.33 µM, the CO koff is on record as 2.43 ± 0.15 ^b s^−1 and the CO kon is 0.73 ± 0.071 ^b µM^−1s^−1.

B5: DevS: full length wild-type heme sensor kinase DevS of Mycobacterium tuberculosis (protein, UniProt P9WGK3 1-578, looked up)
chain: B4 chain with F171Y
modifications: full-length
On to B5, for which the autooxidation half life in data set [1] (37 °C, full length DevS from a slow expressing vector) is 4 h; in data set [6] (0.1 mM Cu2+) it was “less than 2 min”. Also, the Kd in data set [4] turned out to be 0.58 µM; in data set [7] it was 8.29 µM. Further, in data set [5], the O2 kon is 11.8 ^a µM^−1s^−1. Moreover, the autooxidation rate k in data set [6] (setting [11]) worked out at 0.0049 h⁻¹; in data set [6] (setting [12]) it was 0.062 h⁻¹; in data set [6] (CuCl2 0.1 mM, hepes buffer (20 mM), pH 7.5, Chelex 100), 25 h⁻¹; in data set [6] (setting [13]) it was 0.09 h⁻¹; in data set [6] (setting [14]), 0.013 h⁻¹; in data set [6] (setting [15]), 0.012 h⁻¹. For the same molecule, the autooxidation rate k in data set [6] (setting [16]) stood at 0.010 h⁻¹; in data set [6] (hepes 20 mM, pH 7.5, pretreated with Chelex 100, no added cation) it was 0.0033 h⁻¹; in data set [6] (setting [8]), 0.019 h⁻¹. Besides, the “autooxidation t1/2” value in data set [6] (setting [11]) amounted to 170 h; in data set [6] (setting [12]), 11 h; in data set [6] (setting [13]), 7.8 h; in data set [6] (setting [14]), 78 h; in data set [6] (setting [15]), 59 h; in data set [6] (setting [16]), 96 h. Moreover, the “autooxidation t1/2” value in data set [6] (setting [8]) is > 30 h; in data set [6] (phosphate buffer (50 mM), pH 7.5, 1 mM EDTA and 200 mM NaCl, listed as Full length wild-type DevS) it was 73.6 h. For the same molecule, in data set [6] (Cu2+ from 100 to 10 µM), the “decrease of autooxidation rate on tenfold decrease in Cu2+ concentration” value is “over 300 fold”. Moreover, the autooxidation half-lives result in data set [6] (in the absence of Fe3+ and Cu2+) is recorded as “greater than one day”. In addition, the autooxidation rates in data set [6] (in the presence of K+, Na+, Mg2+, and Ca2+) fell in the range of 0.005 to 0.02 h⁻¹. The kinase activity result was “active” in the data set on DevS kinase (setting [9]); “intermediate kinase activity” in the data set with DevS kinase (ferrous unligated form (5c complex), listed as wild-type DevS); “further activates the kinase” in the data set on DevS kinase (ligand binding: CO and NO); “inactive” with DevS kinase (setting [10]); “completely inactivates it” in the data set on DevS kinase (ligand binding: O2 (oxy ferrous 6c species), listed as wild-type DevS). Moreover, the CO koff in data set [7] was 2.57 ± 0.40 ^b s^−1. Moreover, the CO kon in data set [7] is 0.31 ± 0.031 ^b µM^−1s^−1.
